Key:
TAMRA-cs094B = assay: FP titration and kinetics, hinge vs TAMRA-cs094B; format: binding; conditions: Effector TAMRA-cs094B; method FP
Description: (§1) All FP measurements were performed at 25° C. in 96-well plates (Corning 3686) using a Synergy Neo2™ plate reader and a 530/590 nm filter cube. The buffer for all FP measurements was 20 mM Tris-HCl, 100 mM NaCl, 0.05% v/v TWEEN20 at pH 8. Titrations were carried out in 96-well format, with 4 replicates per plate and 24 data points per titration (23 steps of two-fold serial dilution of hinges in the presence of TAMRA-labeled peptide at a constant concentration between 0.1 nM and 1 nM) with a final sample volume of 80 μl per well. Titration plates were incubated overnight at room temperature before measuring to ensure complete equilibration. The polarization signal S (as calculated by the Neo2™ software) was fitted to the equation
(§2) where fAB is the fraction of peptide that is bound, Atot is the absolute hinge concentration, Btot is the absolute peptide concentration, S0 is the baseline polarization of free peptide, and S1 is the change in polarization upon complex formation.
(§3) Fitting was performed using the scipy.optimize.curve_fit python function (53). Uncertainties for KD values are standard deviation errors calculated from the covariance matrix of the fits. In cases where the fitted KD was lower than the concentration of the labeled peptide Btot, we report the KD as KD<Btot. […]

TAMRA-cs074B = assay: Fluorescence polarization (FP) titration and kinetics, hinge vs TAMRA-cs074B; format: binding; conditions: Effector TAMRA-cs074B; method FP
Sequence of TAMRA-cs074B (as listed by the source): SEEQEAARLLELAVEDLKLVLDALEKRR
Description: as §1, §2
Fitting was performed using the scipy.optimize.curve_fit python function (53). Uncertainties for KD values are standard deviation errors calculated from the covariance matrix of the fits. In cases where the fitted KD was lower than the concentration of the labeled peptide Btot, we report the KD as KD<Btot.
For FP kinetics experiments a 2× peptide solution and 8 different 2× hinge solutions at different concentrations were prepared separately. 40 μl of each hinge solution were mixed with 40 μl peptide solution using a multichannel pipet and the measurement was started immediately after mixing. Polarization signals S at each concentration were fitted individually to the equation
where S0 is the amplitude, S1 is the polarization at equilibrium, kapp is the apparent rate constant, t is the time after start of the measurement, and t0 is the dead time between mixing and start of the measurement. For each hinge-peptide pair, the apparent rate constants for 8 different concentrations are fitted to the equation
where koff and kon are observed off- and on rates and Atot is the absolute hinge concentration.

three-helix bundles = assay: SEC binding experiments with three-helix bundles; conditions: FIG. 16A
Description: (§4) Individual hinge and sfGFP-fused peptides or 3hb were diluted in 20 mM Tris pH 8, 100 mM NaCl and mixed at approximately 1:1 concentrations. 0.5-1 mL of the resulting samples were injected onto a Superdex™ 200 Increase 10/300 GL columns and the absorbance at 230 nm was used as a readout for binding. For sfGFP-fused peptides, 473 nm was also used as readout. Mixtures were at a total concentration of 2. μM or higher.

cs201B = assay: FRET titration and kinetics, labeled extended hinge vs peptide cs201B; format: binding
Sequence of cs201B (as listed by the source): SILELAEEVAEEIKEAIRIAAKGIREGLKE
Description: (§5) AlexaFluor™ 555 C2 maleimide (donor) and AlexaFluor™ 647 C2 maleimide (acceptor) were purchased from ThermoFisherScientific. Stock solutions at −5 mM were prepared by dissolving 1 mg of each dye in 200 μl DMSO. Hinge variants containing two cysteines were expressed and purified as described above with the modification that 0.5 mM TCEP was used during lysis, IMAC and SEC, and that the buffer for initial SEC contained 20 mM sodium phosphate (PH 7.0) instead of Tris-HCl. After SEC, 500 μl hinge at a concentration of 50 μM was incubated with 500 μM of a single dye for controls or 250 μM each of two dyes. After 2 h incubation at room temperature, samples were purified by SEC using a buffer containing 20 mM Tris-HCl and 100 mM NaCl at pH 8.
(§6) The buffer for all FRET measurements was 20 mM Tris-HCl, 100 mM NaCl, 0.05% v/v TWEEN®20 at pH 8. Fluorescence spectra were recorded at room temperature using a FluoroMax™ spectrometer in a 1 cm×1 cm cuvette at a sample volume of 3 ml. FRET titrations and kinetics measurements were performed at 25° C. in 96-well plates (Corning 3686) using a Synergy Neo2™ plate reader. Excitation wavelength was 520 nm and emission wavelength was 665 nm (except for donor-donor controls for which emission wavelength was 555 nm, see FIG. 13B right column).
(§7) Titrations were carried out in 96-well format, with 4 replicates per plate and 24 data points per titration (23 steps of two-fold serial dilution of effector (peptide or 3hb) in the presence of double-labeled hinge at a constant concentration of 2 nM) with a final sample volume of 80 μl per well. […] The raw fluorescence signal (donor emission upon acceptor excitation) was fitted to the equation
(§8) Fitting was performed using the scipy.optimize.curve_fit python function (53). Uncertainties for KD values are standard deviation errors calculated from the covariance matrix of the fits. […]
(§9) For FRET kinetics experiments a 2× hinge solution and 8 different 2× effector solutions at different concentrations were prepared separately. […] Fluorescence signals S at each concentration were fitted individually to the equation […]

off-target peptides = assay: Pairwise FRET titrations of labeled hinges with off-target peptides; format: binding; conditions: 2 nM labeled hinge; off-target peptides at μM concentrations; flat lines
Description: A critical feature of two-state switches in biology and technology is the coupling between the state control mechanism and the populations of the two states. To quantitatively investigate the thermodynamics and kinetics of the effector induced switching between the two states of our designed hinges, we used Forster resonance energy transfer (FRET). […]
(§10) The buffer for all FRET measurements was 20 mM Tris-HCl, 100 mM NaCl, 0.05% v/v TWEEN®20 at pH 8. Fluorescence spectra were recorded at room temperature using a FluoroMax™ spectrometer in a 1 cm×1 cm cuvette at a sample volume of 3 ml. FRET titrations and kinetics measurements were performed at 25° C. in 96-well plates (Corning 3686) using a Synergy Neo2™ plate reader. […]
as §7

3hb21 = assay: FRET titration and kinetics, labeled extended hinge vs 3hb21; format: binding
Sequence of 3hb21 (as listed by the source): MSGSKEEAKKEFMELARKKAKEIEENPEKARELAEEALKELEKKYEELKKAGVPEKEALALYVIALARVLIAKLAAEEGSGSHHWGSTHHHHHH
Description: as §5, §6, §7, §8, §9

cs221B = assay: FRET titration and kinetics, labeled extended hinge vs peptide cs221B; format: binding
Sequence of cs221B (as listed by the source): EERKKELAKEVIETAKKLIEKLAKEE
Description: as §5, with “After 2 h incubation at room temperature, samples were purified by SEC using a buffer containing 20 mM Tris-HCl and 100 mM NaCl at pH 8.” left out
as §10
(§11) Titrations were carried out in 96-well format, with 4 replicates per plate and 24 data points per titration (23 steps of two-fold serial dilution of effector (peptide or 3hb) in the presence of double-labeled hinge at a constant concentration of 2 nM) with a final sample volume of 80 μl per well. […] The raw fluorescence signal (donor emission upon acceptor excitation) was fitted to the equation […]

cs074B = assay: FRET titration and kinetics, labeled extended hinge vs peptide cs074B; format: binding; conditions: Effector cs074B; method FRET
Description: as §5, with “After 2 h incubation at room temperature, samples were purified by SEC using a buffer containing 20 mM Tris-HCl and 100 mM NaCl at pH 8.” left out
as §10, §11

3hb05 = assay: FRET titration, labeled extended hinge vs 3hb05; format: binding
Sequence of 3hb05 (as listed by the source): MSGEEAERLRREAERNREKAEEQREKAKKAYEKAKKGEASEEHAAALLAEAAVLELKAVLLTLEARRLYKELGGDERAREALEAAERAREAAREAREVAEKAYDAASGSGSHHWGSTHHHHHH
Description: as §5, with “After 2 h incubation at room temperature, samples were purified by SEC using a buffer containing 20 mM Tris-HCl and 100 mM NaCl at pH 8.” left out
as §10, §11

TAMRA-cs269B = assay: FP titration and kinetics, hinge vs TAMRA-cs269B; format: binding; conditions: Effector TAMRA-cs269B; method FP
Sequence of TAMRA-cs269B (as listed by the source): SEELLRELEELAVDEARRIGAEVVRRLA
Description: as §1, §2, §3

[1] = tested on: original peptides fused to superfolder green fluorescent protein (sfGFP); assay: SEC binding experiments with original peptides fused to sfGFP; conditions: FIG. 17C
Description: as §4

Sequence of TAMRA-cs094B (as listed by the source): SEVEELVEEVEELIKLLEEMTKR

B1: cs094: designed hinge protein, SEQ ID NO:5 (protein)
chain: MSGDEEERLRQEVEKAEKELEKLAKQSTDEEVRKMVREVAKQLRRLAEEAIRQKDDEALRQATEVVKMVQEAVKVAQKTTDQKVILLLLAVALVAIKVAQLAIRSDDTEALRLARIVIRAVQLLVKLVQKTTDPEVRRTALRVAELLAKLAKEAIERNDEEALREASEVVKEVQELVKEAEKSTDEEEIRELLQRAEERIREAQERIREGSGSHHWGSTHHHHHH
- kon (TAMRA-cs094B): 9400 M⁻¹ s⁻¹

B2: cs074: de novo designed two-state hinge protein, SEQ ID NO:4 (protein)
chain: MSGDEEVQEAVERAEELREEAEELIKKARKTGDPELLRKALEALKEAVRAVKEAIKRNPDNEEAVKTAVRLARELLKVAEELKERAEKTGDPRLLLLAAEAIAWAIEAVFLAAKASENTEGALEAARAAVKLAEVAKRIAKLLQRDAKKEGDPELLKLALRALELAVRAVELAIKENPDNEEAVETAKRLAEELRKVAELLEERAKETGDPELQELAKRAKEVADRARELAKKSNPNNGSGSHHWGSTHHHHHH
- kon (TAMRA-cs074B): 64000 M⁻¹ s⁻¹
- SEC binding to three-helix bundles (three-helix bundles): clear binding

B3: cs201F: extended hinge cs201 for FRET labeling, SEQ ID NO:30 (protein)
chain: MSGDEEVQEAVERAEELREEAEELIKKARKTGDPELLRKALEALEEAVRAVEEAICRNPDNDEAVETAVRLARELKKVAEELQERAKKTGDPELLKLALRALEVAVRAVELAIKSNPDNDEAVETAVRLARELKKVAEELQERAKKTGDPELLKLALRALEVAVRAVELAIKRNPDNEEAIKTALRLARELRKVAKELIERARKTGDAELLKKALEAARVAVEAVRLAAEYNKENAEKMAELLVELAELAREVADVLIELAEKTGDPELLKKALEVLEEAVEAVRLAIEYDPDHDEAVETAVRLARELKKVAEELQERAKKTGDPELLKLALRALEVAVRAVELAIKSNPDNEEAVETAKRLAEELRKVAELLEERAKETGDPCLQELAKRAKEVADRARELAKKSNPNNGSGSHHWGSTHHHHHH
- reversibility of hinge conformational change (cs201B; 30 nM FRET-labeled hinge, peptide added, then excess unlabeled hinge cs201): fully reversible
- kon (cs201B; Effector cs201B, method FRET): 4500 M⁻¹ s⁻¹
- off-target FRET titration outcome (off-target peptides): no conformational change

B4: cs221F: extended hinge cs221 for FRET labeling, SEQ ID NO:31 (protein)
chain: MSGEMVEEIEKLAEELAKKTKDCEVKKLAKKAAELAKKSTDEMKKEIVKDALELALRTKDEEVIRLALKAAVLAAESDDEEVKEVVKKALEAALKSKDEEVIRLLLLAAVLAAAAARSGSPEEKLEIAKKALELAMKSKDEEVIRLALLAAVLAARSDDEEVLKIVKKALELAMESKDVEVIRLALEAAVLAARSTDPEKKKCVYEALEKAMESKDEEEIKKELKAAVEKARSTEGSGSHHWGSTHHHHHH
- off-target FRET titration outcome (off-target peptides): no conformational change
- kon (3hb21; Effector 3hb21, method FRET, 5 nM hinge): 13000 M⁻¹ s⁻¹
- binding compared with the original peptide cs221B (3hb21; FRET): significantly tighter
- KD, times stronger than the KD of the original peptide cs221B (3hb21; FRET titration, 2 nM hinge): at least 20 times
- kon (cs221B; Effector cs221B, method FRET): 2600 M⁻¹ s⁻¹

B5: cs074F: extended hinge cs074 for FRET labeling, SEQ ID NO:29 (protein)
chain: DEEVQEAVERAEELREEAEELIKKARKTGDPELLRKALEALECAVRAVEEAIKRNPDNDEAVETAVRLARELKKVAEELQERAKKTGDPELLKLALRALKVAVRAVKLAIKSNPDNEEAVKTAVRLARELLKVAEELKERAEKTGDPRLLLLAAEAIAWAIEAVFLAAKASENTEGALEAARAAVKLAEVAKRIAKLLQRDAKKEGDPELLKLALRALELAVRAVELAIKENPDNDEAVETAVRLARELKKVAEELQERAKKTGDPELLKLALRALEVAVRAVELAIKSNPDNEEAVETAKRLAEELRKVAELLEERACETGDPELQELAKRAKEVADRARELAKKSNPNNGSHHHHHH
- off-target binding compared to the on-target interaction for cs074B (cs201B; FRET titration, 2 nM labeled hinge, peptide cs201B): three orders of magnitude weaker
- kon (TAMRA-cs074B): 100000 M⁻¹ s⁻¹
- kon (cs074B): 170000 M⁻¹ s⁻¹
- affinity compared with the original peptide cs074B (3hb05): similar
- off-target binding compared to the on-target interaction for cs074B (cs221B; FRET titration, 2 nM labeled hinge, peptide cs221B): two orders of magnitude weaker

B6: cs269: designed hinge protein, SEQ ID NO:14 (protein)
chain: MSGDEERVRELAERASREAERAVRSGSEESLEEALRNVEELIRKSDSEEARVRVAEAAVRAAAEAAARSGTVEAAAVAVIFTARVLQIVSSSEEAVVRVLAAAAAAAARVAVELGTEEALETALRFVELLVRLADSDEARQRVLRSASESARRSAEESGSERAREVAERFRERIERNQGSGSHHWGSTHHHHHH
- kon (TAMRA-cs269B): 2500 M⁻¹ s⁻¹
- SEC binding experiment with sfGFP-fused original peptide [1]: higher-order peaks

From patent US20250236644A1, “De Novo Designed Stimulus-responsive Two-state Hinge Proteins” (University of Washington, priority 2024, published 2025)
